Patent US20250290928A1, “METHOD, KIT AND DEVICE FOR DETECTING EXTRACELLULAR VESICLES” (priority 2022, published 2025)
No end group written: not given here. TQ3 = quencher

Molecular target: T1, MMP14 in the MDA-MB-231-derived extracellular vesicles (Homo sapiens, UniProt P50281)
T1 construct: in terms of intact MMP14 with a molecular weight of 70 kDa
Test: Digital detection through MMP14 activity of MDA-MB-231-derived extracellular vesicles captured on Tim4-immobilized magnetic particles
Assay type: biochemical
Settings: Table 56, MB231 Present, 24 hours at 23° C.
Experimental: Magnetic particles included in PS Capture (trademark) Exosome Flow Cytometry Kit (manufactured by FUJIFILM Corporation) were used as magnetic particles. In this kit, binding of an extracellular vesicle to a Tim4-immobilized magnetic particle is utilized.
800 μL of Exosome Capture Beads were aliquoted in a 1.5 mL microtube, vortexed for 5 seconds, spun down in a benchtop centrifuge, and then placed on a magnetic stand. After still standing for 1 minute, the supernatant was removed by pipetting. 1 mL of x1 WB (+Enhancer) prepared from x10 Washing Buffer and x100 Exosome Binding Enhancer included in the kit was added to the residue, the mixture was vortexed for 5 seconds, spun down in a benchtop centrifuge, and then placed on a magnetic stand. After still standing for 1 minute, the supernatant was removed by pipetting. This operation was repeated three times.
800 μL of the buffer (4) was added to the magnetic particle pellets, and the mixture was vortexed for 30 seconds to provide a homogeneous magnetic particle suspension. 60 μL of the suspension was aliquoted into each of twelve 1.5 mL microtubes.
The concentration of the solution is 4 μg/mL. […] Further, the concentration of the x1/5 solution was set to be the highest concentration, and 10-fold dilution was performed in four stages. Thus, 10-fold dilution samples in a total of five stages were obtained.
The magnetic particle suspension that had been aliquoted in each amount of 60 μL in the section “(Preparation of Particles)” was vortexed for 5 seconds, spun down in a benchtop centrifuge, and then placed on a magnetic stand. After still standing for 1 minute, the supernatant was removed by pipetting.
After that, the above-mentioned mixed solution was spun down in a benchtop centrifuge, then placed on a magnetic stand, and left to stand still for 1 minute. After that, the supernatant was removed by pipetting, 300 μL of the buffer (4) was added to the residue, and the mixture was vortexed for 5 seconds. The mixture was spun down in a benchtop centrifuge, then placed on a magnetic stand, and left to stand still for 1 minute. The same operation was further repeated twice.
For detection of MMP14 activity, 1 mM Custom #1 and Custom #2 were diluted with the buffer (4) to prepare MMP14 detection solutions containing 5 μM Custom #1 and Custom #2, respectively.
The supernatant of the mixed solution of the magnetic particles and the extracellular vesicles subjected to the washing was removed by pipetting, and 60 μL of each of the MMP14 detection solutions was added to each of the magnetic particle pellets to prepare a reaction solution for wells.
Magnosphere (trademark) MS300/Streptavidin (manufactured by JSR Corporation) (hereinafter abbreviated as “MS300S”) was used as magnetic particles. The magnetic particles were modified with Tim4 through use of Biotin-labeled Exosome Capture included in MagCapture (trademark) Exosome Isolation Kit PS Ver. 2 (manufactured by FUJIFILM Corporation) (hereinafter abbreviated as “PS2”) to prepare Tim4-immobilized magnetic particles.
10 μL of Biotin-labeled Exosome Capture was added to the suspension, and the mixture was vortexed for 5 seconds so that the contents were mixed. The mixture was subjected to a reaction for 10 minutes while the contents were mixed by inversion at room temperature with a rotator. After that, the resultant was spun down in a benchtop centrifuge, and then placed on a magnetic stand. After still standing for 1 minute, the supernatant was removed by pipetting. 500 μL of x1 I/WB (±Enhancer) was added to the residue, and the mixture was vortexed for 5 seconds, spun down in a benchtop centrifuge, and then placed on a magnetic stand. After still standing for 1 minute, the supernatant was removed by pipetting. This operation was further repeated twice. […]

With “TAMRA-GGPLGLAGGK(TQ3) ({TAMRA}-GGPLGLAGGK(TQ3)) [Custom #2T]” the “Particle Expected value λ” value (Particle MS300C) was 0.2937, the “Particle Positive ratio” value (Particle MS300C) was 0.2545 and the “Particle Expected value λ” value (Particle Simoa) was 0.07748. The “Particle Positive ratio” value (Particle Simoa) was 0.07456.
